Laboratory results from patent US20140056903A1 (Regeneron, published 2014).

T1: human GFRα3 expressed with a C-terminal mFc tag (human)
T1 construct: also called hGFRα3-mFc
T1 chain: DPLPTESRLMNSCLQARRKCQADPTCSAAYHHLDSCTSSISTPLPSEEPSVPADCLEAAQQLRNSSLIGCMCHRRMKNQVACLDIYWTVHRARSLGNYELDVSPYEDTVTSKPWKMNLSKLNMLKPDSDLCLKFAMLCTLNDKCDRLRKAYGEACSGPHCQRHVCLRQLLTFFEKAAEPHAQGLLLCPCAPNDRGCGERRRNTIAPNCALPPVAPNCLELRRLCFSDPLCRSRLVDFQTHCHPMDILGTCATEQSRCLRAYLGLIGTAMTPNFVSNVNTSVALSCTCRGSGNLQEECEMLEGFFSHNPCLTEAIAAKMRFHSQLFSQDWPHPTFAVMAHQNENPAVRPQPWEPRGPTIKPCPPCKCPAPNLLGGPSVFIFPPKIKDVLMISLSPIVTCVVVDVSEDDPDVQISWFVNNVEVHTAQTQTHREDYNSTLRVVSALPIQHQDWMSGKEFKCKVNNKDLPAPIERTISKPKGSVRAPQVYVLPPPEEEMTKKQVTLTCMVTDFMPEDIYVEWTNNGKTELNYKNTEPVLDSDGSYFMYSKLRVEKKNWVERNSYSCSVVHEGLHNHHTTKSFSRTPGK

T2: monkey GFRα3 expressed with a C-terminal myc-myc-hexahistidine tag (monkey (Mf), UniProt O60609 32-374 (human entry), limits assumed)
T2 construct: also called MfGFRα3-mmh; MfGFRα3-mmH
T2 chain: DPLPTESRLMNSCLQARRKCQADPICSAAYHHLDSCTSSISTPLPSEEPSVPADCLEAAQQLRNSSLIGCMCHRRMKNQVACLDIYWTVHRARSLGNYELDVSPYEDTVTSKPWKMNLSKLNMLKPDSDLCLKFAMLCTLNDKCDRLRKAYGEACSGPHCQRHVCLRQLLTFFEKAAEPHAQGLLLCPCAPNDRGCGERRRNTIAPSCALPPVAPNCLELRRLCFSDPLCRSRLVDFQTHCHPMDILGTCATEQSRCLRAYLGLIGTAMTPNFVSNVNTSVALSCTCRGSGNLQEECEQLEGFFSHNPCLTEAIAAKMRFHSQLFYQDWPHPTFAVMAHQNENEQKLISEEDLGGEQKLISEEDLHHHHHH


Columns and labels:
[1] = target: T1, human GFRα3 expressed with a C-terminal …; assay: SPR, Ab captured, 37C
Procedure: (§1) Antibodies were tested for binding to human GFRα3 expressed with either a C-terminal myc-myc-hexahistidine tag (hGFRα3-mmh; SEQ ID: 370, a C-terminal hFc tag (hGFRα3-hFc; SEQ ID:371), or a C-terminal mFc tag (hGFRα3-mFc; SEQ ID:372), as well as monkey GFRα3 expressed with a C-terminal myc-myc-hexahistidine tag (MfGFRα3-mmh; SEQ ID:373). Anti-GFRα3 antibodies were captured on either a goat anti-mouse IgG polyclonal antibody (GE Healthcare, #BR-1008-38) or a mouse anti-human IgG monoclonal antibody (GE Healthcare, #BR-1008-39) surface created through direct amine coupling to a Biacore CM5 sensor chip. Kinetic experiments were carried out using HBS-EP (10 mM HEPES, 150 mM NaCl, 3 mM EDTA, 0.05% Surfactant P20, at pH 7.4) or PBS buffer containing 0.05% v/v surfactant P20 as both the running buffer and the sample buffer. Binding to human GFRα3-mmh or monkey GFRα3-mmh was evaluated by injecting several concentrations ranging from 200 to 7.4 nM (3-fold dilutions) across the captured antibody surface. Binding to human GFRα3-mFc or human GFRα3-hFc was evaluated by injecting several concentrations ranging from 100 to 3.7 nM (3-fold dilutions) across the captured antibody surface. Antibody-antigen association was monitored for up to 4 minutes, while dissociation in buffer was monitored for up to 20 minutes. Kinetic association (kₐ) and dissociation (kd) rate constants were determined by processing and fitting the data to a 1:1 binding model using Scrubber 2.0c curve fitting software. Binding dissociation equilibrium constants (KD) and dissociative half-lives (t_{1/2}) were calculated from the kinetic rate constants as: KD (M)=kd/kₐ and t_{1/2} (min)=[ln 2/(60*kd)].

[2] = target: T2, monkey GFRα3 expressed with a …; assay: SPR, Ab captured, 37C
Procedure: as §1

[3] = target: T3, human GFRα3 expressed with a C-terminal myc-myc-hexahistidine tag (human, UniProt O60609 32-374, biotinylated (sites not given) in ELISA format 2 and in the Octet cross-competition; not in SPR); assay: Octet cross-competition; biotin-hGFRα3-mmH pre-saturated with first antibody H4H2342P
T3 construct: also called hGFRα3-mmh; hGFRα3-mmH
Procedure: (§2) A cross-competition assay was conducted to assess the ability of select antibodies to compete with one another for binding to human GFRα3 using an Octet RED384 biosensor (Fortebio Inc.). The entire experiment was performed at 25° C. with the flow rate of 1000 rpm in Octet HBST buffer (0.01 M HEPES pH7.4, 0.15M NaCl, 3 mM EDTA, 0.05% v/v Surfactant P20, 0.1 mg/mL BSA). To assess whether 2 antibodies were able to compete with one another for binding to their respective epitopes on biotinylated recombinant human GFRα3 expressed with a C-terminal myc-myc-hexahistidine tag (biotin-hGFRα3-mmH; SEQ ID:370), around ˜1.2 nm of biotin-hGFRα3-mmH was first captured onto streptavidin-coated Octet sensor tips (Fortebio Inc, #18-5019) by submerging the tips for 1 minute into a 10 μg/mL solution of biotin-hGFRα3-mmH. The antigen coated sensor tips were then placed into wells containing 25 μg/mL solution of a first anti-GFRα3 monoclonal antibody for 4 minutes to saturate the biotin-hGFRα3-mmH surface. The sensor tips were then subsequently dipped into wells containing 25 μ/mL solution of a second anti-GFRα3 monoclonal antibody. The sensor tips were washed in Octet HBST buffer in between every step of the experiment. The real-time binding response was monitored during the course of the experiment and the binding response at the end of every step was recorded as shown in FIG. 9. The response of mAb-2 binding to biotin-hGFRα3-mmH pre-complexed with the first antibody was compared and competitive/non-competitive behavior of different anti-GFRα3 monoclonal antibodies was determined.

[4] = target: T3, human GFRα3 expressed with a C-terminal …; assay: Octet cross-competition; biotin-hGFRα3-mmH pre-saturated with first antibody H4H2357S
Procedure: as §2

Row | Binder | Kd [1] [nM] | koff [1] [s⁻¹] | kon [1] [M⁻¹ s⁻¹] | t1/2 [1] [min] | Kd [2] [nM] | koff [2] [s⁻¹] | kon [2] [M⁻¹ s⁻¹] | t1/2 [2] [min] | binding response of second antibody (nm) [3] [nm] | binding response of second antibody (nm) [4] [nm]
1 | H4H2292S (antibody, human IgG4, V domains shown, human IgG4 Fc (H4H)) VH: EVQLVESGGGVVQPGRSLRLSCAASGFTFSSYGMHWVRQAPGKGLEWVSFIWYDGSNKYYADSVKGRFTISRDNSKNTLYLQMNSLTAEDTAVYYCARRGILTGTTAFDIWGQGTMVTVSS VL: DIQMTQSPSSLSASVGDRVTITCRASQSISSYLNWYQQKPGKAPKLLIYAASSLQSGVPSRFSGSGSGTDFTLTIRSLIPEDFATYYCQQTYNTPFTFGPGTKVEIK | 0.0432 | 2.57e-05 | 596000 | 449 | 2.18 | 0.000195 | 89500 | 59 | 1.85 | 1.92
2 | H4H2296S (antibody, human IgG4, V domains shown, human IgG4 Fc (H4H)) VH: not shown VL: DIVMTQSPSSVSASVGDRVTITCRASQGISSWLAWYQQKPGKAPKLLIYAASSLRSGVPSRFSGSGSGTDFTLTITSLQPEDFATYYCQHTNSFPFTFGPGTKVEIK | 0.0294 | 4.74e-05 | 1.61e+06 | 244 | 10.3 | 0.00285 | 277000 | 4 | 0.28 | 0.06
3 | H4H2342P (antibody, human IgG4, V domains shown, human IgG4 Fc (H4H)) VH: EVQLLESGGGLVQPGGSLRLSCAASGFTFSTYAMSWVRQAPGKGLEWVSAIRGNGVNTYYGDSMKGRFTISRDNSKDTLYLQMNSLRAEDTAVYYCAKNKWELLVFEYWGQGTLVTVSS VL: DIQMTQSPSSLSASVGDRVTITCRASQDISNYLAWYQQKPGKVPKLLIYAASTLQSGVPFRFSGSGSGTDFTLTISSLQPEDVATYYCQKYNSAPPFGPGTKVDIK | 0.0354 | 4.28e-05 | 1.21e+06 | 270 | 11.1 | 0.00166 | 150000 | 7 | 0.06 | -0.01
4 | H4H2352S (antibody, human IgG4, V domains shown, human IgG4 Fc (H4H); also called H4H2352S-1) VH: EVQLVQSGAEVKKPGASVKVSCKASGYTFTNYGITWVRQAPGQGLEWMGWISAYNGNTGYAQKFQGRVTMTTDTSTSTAYMELRSLRSDDTAVYYCAREDYDFWRAFDIWGQGTMVTVSS VL: EIVLTQSPGTLSLSPGERATLSCRASQSVSSTYLAWLQQKPGQAPRLLIYGASSRATGIPDRFSGSGSGTDFTLTINRLEPEDFAVYYCQQYAYSPYTFGQGTKLEIK | 0.0132 | 3e-05 | 2.28e+06 | 385 | 0.117 | 6.53e-05 | 557000 | 177 | 1.72 | 2

Further lines, results first:

Row | Kd [1] [nM] | koff [1] [s⁻¹] | kon [1] [M⁻¹ s⁻¹] | t1/2 [1] [min] | Kd [2] [nM] | koff [2] [s⁻¹] | kon [2] [M⁻¹ s⁻¹] | t1/2 [2] [min] | binding response of second antibody (nm) [3] [nm] | binding response of second antibody (nm) [4] [nm] | Binder
5 | 0.0301 | 4.88e-05 | 1.62e+06 | 237 | 20.4 | 0.00561 | 276000 | 2 | 0.31 | 0.12 | H4H2295S (antibody, human IgG4, V domains shown, human IgG4 Fc (H4H)) VH: EVQLVESGGGLVQAGGSLRLSCVASGFTFSSYAMSWVRQAPGKGLEWVSAISGSGGSTYSADSVKGRFTISRDNSKNTLYLQMNSLRAEDTAVYYCTKPSSYSSSNFYYGMDVWGQGTTVTVSS VL: DIQMTQSPSSVSASVGDRVTITCRASQGISSWLAWYQQKPGKAPKLLIYTASSLQSGVPSRFSGSGSRTDFTLTISSLQPEDFATYYCQQTNSLPLTFGPGTKVEIK
6 | 0.0793 | 9.4e-05 | 1.19e+06 | 123 | 7.86 | 0.00135 | 172000 | 9 | 0.25 | 0.04 | H4H2357S (antibody, human IgG4, V domains shown, human IgG4 Fc (H4H)) VH: EVQLVESGGGLVQPGGSLRLSCAASTFTFSSYAMTWVRQAPGKGLEWVSSISGSGDSTYYADSVKGRFTISRDNSKNTLFLQMNSLRAEDTAVYYCAKKDGPGRYYVRYGMDVWGQGTTVTVSS VL: DIQMTQSPSSVSASVGDRVTITCRASQGISSWLAWYQQKPGKAPKLLIYTTSSLQSGVPSRFSGSGSGTDFTLTISSLQPEDFATYYCQQANSFPLTFGGGTKVDIK
7 | 0.0209 | 3.46e-05 | 1.66e+06 | 334 | 2.25 | 0.000974 | 433000 | 12 | 0.23 | 0.05 | H4H2294S (antibody, human IgG4, V domains shown, human IgG4 Fc (H4H)) VH: EVQLVESGGGLVQPGGSLRLSCAASGFTFSSYAMSWVRQAPGKGLEWVSVISGSGGSTYYADAVKGRFTISRDNSKHTLYLQMNSLRAEDTAVYYCTKPSSYSSSNFYYGMDVWGQGSTVTVSS VL: DIQLTQSPSSVSASVGDRVTITCRASQGISSWLAWYQQKPGKAPKLLIYAASSLQSGVPSRFSGSGSGTDFTLTISSLQPEDFATYYCQQTNSFPFPFGPGTKVDIK
8 | 0.031 | 3.39e-05 | 1.1e+06 | 341 | 5.29 | 0.000913 | 173000 | 13 | 0.16 | 0 | H4H2355S (antibody, human IgG4, V domains shown, human IgG4 Fc (H4H)) VH: EVQLVESGGGLVQPGGSLRLSCAASGFTFSSYAMSWVRQVPGKGLEWVSAISGSGDNTYNAESVKGRFTISRDNSKNMLYLQMNSLRAEDTAVYYCAKTKFSSSLLFDYWGQGTLVTVSS VL: not shown
